Assay results reported in patent US20230129844A1 (Amgen, published 2023).

Biological target: human MUC17 (huMUC17), membrane form (human, UniProt Q685J3 26-4493)
Experiment: immunohistochemistry on tissue sections

B1: anti-huMUC17 4C11 IHC antibody (antibody, mouse IgG2a, kappa, V domains shown)
VH: EVQLQQSGPELVKPGDSVKISCKASGYSFTGNFLNWVMQSHGKSLEWIGRITPYSGETFYNQKFKDKATLTVDISSSIAHMELRSLTSEDSAVYYCARGVTTEVSHYYAMDYWGQGTAVTVSS
VL: DIQMNQSPSSLSASLGDTITITCHASQNINLWLHWYQQKPGNIPKLLIFKASNLHTGVPLRFSGSGSGTGFTLTISSLQPEDIATYFCQQGQSYPLTFGGGTKLEIKR
notes: Mouse hybridoma-derived monoclonal antibody; also called 4C11 antibody; the antibody of the invention
- binding result: binds
